B1: SAGA-associated factor 29 (Homo sapiens), Q96ES7 (parent)
chain: MALVSADSRIAELLTELHQLIKQTQEERSRSEHNLVNIQKTHERMQTENKISPYYRTKLRGLYTTAKADAEAECNILRKALDKIAEIKSLLEERRIAAKIAGLYNDSEPPRKTMRRGVLMTLLQQSAMTLPLWIGKPGDKPPPLCGAIPASGDYVARPGDKVAARVKAVDGDEQWILAEVVSYSHATNKYEVDDIDEEGKERHTLSRRRVIPLPQWKANPETDPEALFQKEQLVLALYPQTTCFYRALIHAPPQRPQDDYSVLFEDTSYADGYSPPLNVAQRYVVACKEPKKK

Variants of: B1
Conditions: with h31_human H3C1, P68431

Row | effect of a mutation on the interaction | Variant
1 | disrupting interaction | MALVSADSRIAELLTELHQLIKQTQEERSRSEHNLVNIQKTHERMQTENKISPYYRTKLRGLYTTAKADAEAECNILRKALDKIAEIKSLLEERRIAAKIAGLYNDSEPPRKTMRRGVLMTLLQQSAMTLPLWIGKPGDKPPPLCGAIPASGDYVARPGDKVAARVKAVDGDEQWILAEVVSYSHATNKYEVDAIDEEGKERHTLSRRRVIPLPQWKANPETDPEALFQKEQLVLALYPQTTCFYRALIHAPPQRPQDDYSVLFEDTSYADGYSPPLNVAQRYVVACKEPKKK [D194A]

Variants of: B1
Conditions: with h31_human H3C1, P68431
Remark: another data set of the same source

Row | effect of a mutation on the interaction | Variant
2 | disrupting interaction | MALVSADSRIAELLTELHQLIKQTQEERSRSEHNLVNIQKTHERMQTENKISPYYRTKLRGLYTTAKADAEAECNILRKALDKIAEIKSLLEERRIAAKIAGLYNDSEPPRKTMRRGVLMTLLQQSAMTLPLWIGKPGDKPPPLCGAIPASGDYVARPGDKVAARVKAVDGDEQWILAEVVSYSHATNKYEVDDIDEEGKERHTLSRRRVIPLPQWKANPETDPEALFQKEQLVLALYPQTTCFARALIHAPPQRPQDDYSVLFEDTSYADGYSPPLNVAQRYVVACKEPKKK [Y245A]

Variants of: B1
Conditions: with h31_human H3C1, P68431
Remark: another data set of the same source

Row | effect of a mutation on the interaction | Variant
3 | decreasing interaction | MALVSADSRIAELLTELHQLIKQTQEERSRSEHNLVNIQKTHERMQTENKISPYYRTKLRGLYTTAKADAEAECNILRKALDKIAEIKSLLEERRIAAKIAGLYNDSEPPRKTMRRGVLMTLLQQSAMTLPLWIGKPGDKPPPLCGAIPASGDYVARPGDKVAARVKAVDGDEQWILAEVVSYSHATNKYEVDDIDEEGKERHTLSRRRVIPLPQWKANPETDPEALFQKEQLVLALYPATTCFYRALIHAPPQRPQDDYSVLFEDTSYADGYSPPLNVAQRYVVACKEPKKK [Q240A]

Variants of: B1
Conditions: with h31_human H3C1, P68431
Remark: another data set of the same source

Row | effect of a mutation on the interaction | Variant
4 | decreasing interaction | MALVSADSRIAELLTELHQLIKQTQEERSRSEHNLVNIQKTHERMQTENKISPYYRTKLRGLYTTAKADAEAECNILRKALDKIAEIKSLLEERRIAAKIAGLYNDSEPPRKTMRRGVLMTLLQQSAMTLPLWIGKPGDKPPPLCGAIPASGDYVARPGDKVAARVKAVDGDEQWILAEVVSYSHATNKYEVDDIDEEGKERHTLSRRRVIPLPQWKANPETDPEALFQKEQLVLALAPQTTCFYRALIHAPPQRPQDDYSVLFEDTSYADGYSPPLNVAQRYVVACKEPKKK [Y238A]

Variants of: B1
Conditions: with h31_human H3C1, P68431
Remark: another data set of the same source

Row | effect of a mutation on the interaction | Variant
5 | decreasing interaction | MALVSADSRIAELLTELHQLIKQTQEERSRSEHNLVNIQKTHERMQTENKISPYYRTKLRGLYTTAKADAEAECNILRKALDKIAEIKSLLEERRIAAKIAGLYNDSEPPRKTMRRGVLMTLLQQSAMTLPLWIGKPGDKPPPLCGAIPASGDYVARPGDKVAARVKAVDGDEQWILAEVVSYSHATNKYEVDDIAEEGKERHTLSRRRVIPLPQWKANPETDPEALFQKEQLVLALYPQTTCFYRALIHAPPQRPQDDYSVLFEDTSYADGYSPPLNVAQRYVVACKEPKKK [D196A]

Variants of: B1
Conditions: with h31_human H3C1, P68431
Remark: another data set of the same source

Row | effect of a mutation on the interaction | Variant
6 | disrupting interaction | MALVSADSRIAELLTELHQLIKQTQEERSRSEHNLVNIQKTHERMQTENKISPYYRTKLRGLYTTAKADAEAECNILRKALDKIAEIKSLLEERRIAAKIAGLYNDSEPPRKTMRRGVLMTLLQQSAMTLPLWIGKPGDKPPPLCGAIPASGDYVARPGDKVAARVKAVDGDEQWILAEVVSYSHATNKYEVDDIAEEGKERHTLSRRRVIPLPQWKANPETDPEALFQKEQLVLALYPQTTCFYRALIHAPPQRPQDDYSVLFEDTSYADGYSPPLNVAQRYVVACKEPKKK [D196A]

Variants of: B1
Conditions: with h31_human H3C1, P68431
Remark: another data set of the same source

Row | effect of a mutation on the interaction | Variant
7 | disrupting interaction | MALVSADSRIAELLTELHQLIKQTQEERSRSEHNLVNIQKTHERMQTENKISPYYRTKLRGLYTTAKADAEAECNILRKALDKIAEIKSLLEERRIAAKIAGLYNDSEPPRKTMRRGVLMTLLQQSAMTLPLWIGKPGDKPPPLCGAIPASGDYVARPGDKVAARVKAVDGDEQWILAEVVSYSHATNKYEVDDIREEGKERHTLSRRRVIPLPQWKANPETDPEALFQKEQLVLALYPQTTCFYRALIHAPPQRPQDDYSVLFEDTSYADGYSPPLNVAQRYVVACKEPKKK [D196R]

Variants of: B1
Conditions: with h31_human H3C1, P68431
Remark: another data set of the same source

Row | effect of a mutation on the interaction | Variant
8 | decreasing interaction | MALVSADSRIAELLTELHQLIKQTQEERSRSEHNLVNIQKTHERMQTENKISPYYRTKLRGLYTTAKADAEAECNILRKALDKIAEIKSLLEERRIAAKIAGLYNDSEPPRKTMRRGVLMTLLQQSAMTLPLWIGKPGDKPPPLCGAIPASGDYVARPGDKVAARVKAVDGDEQWILAEVVSYSHATNKYEVDDIDEEGKERHTLSRRRVIPLPQWKANPETDPEALFQKEQLVLALYPQTACFYRALIHAPPQRPQDDYSVLFEDTSYADGYSPPLNVAQRYVVACKEPKKK [T242A]

Variants of: B1
Conditions: with h31_human H3C1, P68431
Remark: another data set of the same source

Row | effect of a mutation on the interaction | Variant
9 | decreasing interaction | MALVSADSRIAELLTELHQLIKQTQEERSRSEHNLVNIQKTHERMQTENKISPYYRTKLRGLYTTAKADAEAECNILRKALDKIAEIKSLLEERRIAAKIAGLYNDSEPPRKTMRRGVLMTLLQQSAMTLPLWIGKPGDKPPPLCGAIPASGDYVARPGDKVAARVKAVDGDEQWILAEVVSYSHATNKYEVDDIDEEGKERHTLSRRRVIPLPQWKANPETDPEALFQKEQLVLALYPQTTCFYRALIHAPPQRPQDDYSVLFEATSYADGYSPPLNVAQRYVVACKEPKKK [D266A]

Variants of: B1
Conditions: with h31_human H3C1, P68431
Remark: another data set of the same source

Row | effect of a mutation on the interaction | Variant
10 | decreasing interaction | MALVSADSRIAELLTELHQLIKQTQEERSRSEHNLVNIQKTHERMQTENKISPYYRTKLRGLYTTAKADAEAECNILRKALDKIAEIKSLLEERRIAAKIAGLYNDSEPPRKTMRRGVLMTLLQQSAMTLPLWIGKPGDKPPPLCGAIPASGDYVARPGDKVAARVKAVDGDEQWILAEVVSYSHATNKYEVDDIDEEGKERHTLSRRRVIPLPQWKANPETDPEALFQKEQLVLALYPQTTCFYRALIHAPPQRPQDDYSVLAEDTSYADGYSPPLNVAQRYVVACKEPKKK [F264A]

From IntAct's records for PubMed 21685874
